{"source": "patent US20050106581A1", "about": "“Modified phosphodiesterase polypeptides with altered physiochemical properties” (priority 2002, published 2005)", "molecules": {"B1": {"name": "DC: PDE4D polypeptide with amino-terminal deletion starting at the LF1 splice site, SEQ ID No. 2, 6xHis tagged (protein, listed as Homo sapiens)", "chain": "MFDVDNGTSAGRSPLDPMTSPGSGLILQANFVHSQRRESFLYRSDSDYDLSPKSMSRNSSIASDIHGDDLIVTPFAQVLASLRTVRNNFAALTNLQDRAPSKRSPMCNQPSINKATITEEAYQKLASETLEELDWCLDQLETLQTRHSVSEMASNKFKRMLNRELTHLSEMSRSGNQVSEFISNTFLDKQHEVEIPSPTQKEKEKKKRPMSQISGVKKLMHSSSLTNSSIPRFGVKTEQEDVLAKELEDVNKWGLHVFRIAELSGNRPLTVIMHTIFQERDLLKTFKIPVDTLITYLMTLEDHYHADVAYHNNIHAADVVQSTHVLLSTPALEAVFTDLEILAAIFASAIHDVDHPGVSNQFLINTNSELALMYNDSSVLENHHLAVGFKLLQEENCDIFQNLTKKQRQSLRKMVIDIVLATDMSKHMNLLADLKTMVETKKVTSSGVLLLDNYSDRIQVLQNMVHCADLSNPTKPLQLYRQWTDRIMEEFFRQGDRERERGMEISPMCDKHNASVEKSQVGFIDYIVHPLWETWADLVHPDAQDILDTLEDNREWYQSTIPQSPSPAPDDPEEGRQGQTEKFQFELTLEEDGESDTEKDSGSQVEEDTSCSDSKTLCTQDSESTEIPLDEQVEEEAVGEEEESQPEACVIDDRSPDTHHHHHH", "modifications": "6xHis tag; PDE4D_core (1)..(664); LF1_splice_site (2)..(2); UCR1_site_-13 (22)..(22); UCR1_site (35)..(35); SER54 (39)..(39); SER579 (564)..(564)"}}, "key": {"[1]": {"assay": "Qualitative investigation of aggregation by size exclusion chromatography (gel filtration)", "assay_type": "physicochemical", "details": "Superose 12, compared to the five isoforms of PDE4D (D3, D5-D8)", "experimental": "The term “improved physicochemical properties” as used herein refers to a decrease in aggregate formation of polypeptides. For the purpose of definition, aggregate formation of the polypeptides of this invention is determined by quantitation of the fractions of a gelfiltration experiment in which aggregated PDE elutes, and of the fractions in which non-aggregated PDE elutes. The degree of aggregation is calculated in percent of non-aggregated PDE based on total (aggregated and non-aggregated) PDE. […] Chromatograms were recorded at 278 nm. […]\n50 μl of Ni-NTA agarose purified isoform preparation was injected into a Superose 12 size exclusion column (type PC3.2/30; Amersham Pharmacia Biotech), equilibrated with 50 mM TrisHCl pH 7.7, 100 mM NaCl, 0.5 mM MgCl2 at a flow rate of 0.1 ml/min at 4° C. Chromatograms were recorded at 278 nm. […]"}, "[2]": {"assay": "Quantification of aggregates and tubulin content (SDS-PAGE densitometry of SEC fractions)", "assay_type": "physicochemical", "details": "compared to isoforms D3 and D5 to D8", "source_text": "In a preferred embodiment, the invention provides a polypeptide comprising a PDE polypeptide sequence, with an amino-terminal deletion wherein the proportion of non-aggregated PDE in the total protein preparation is from 55 %, preferably from 60%, more preferably from 65%, most perferably from 68% to 100%, preferably to 90%, more preferably to 80%, most preferably to 70% of total protein, as determined by the quantitation of eluted fractions from a gel filtration of the PDE fractions. Quantitation was performed as follows: Equal volume aliquots of fractions from Size Exclusion Chromatography, run as hereinbefore described, were analyzed by SDS-PAGE (one gel per run and isoform, FIG. 3). […]\nTo determine the decrease in tubulin association, the ratio of PDE molecules per tubulin molecules in the preparation of PDE polypeptide was calculated by quantitation of SDS-PAGE. […] The tubulin content of PDE preparations was determined as follows: Equal volume aliquots of fractions from SEC were analyzed by SDS-PAGE (one gel per run and isoform, FIG. 3). Optical densities of Coomassie stained PDE and tubulin bands were integrated as described hereinbefore for PDE aggregation quantitation. […]\nQuantification of Aggregates and Tubulin Content\nEqual volume aliquots of fractions from SEC were analyzed by SDS-PAGE (one gel per run and isoform, FIG. 3). […]"}}, "data": [{"molecule": "B1", "values": [{"measurement": "Aggregate formation (gel filtration elution profile)", "setting": "[1]", "result": "decrease in aggregation"}, {"measurement": "Percentage of non-aggregated PDE4D based on total PDE4D protein", "setting": "[2]", "result": "highest percentage of non-aggregated PDE4D"}, {"measurement": "Tubulin content (ratio between PDE4D and tubulin, total mass basis)", "setting": "[2]", "result": "significantly lower"}]}]}
